# Columns and labels:
# MERTK = MERTK (UniProt Q12866); assay: phosphorylation enrichment, bacterial display (enrichment ratio); higher = better substrate or ligand; peptides without Tyr show the background
# Fer (mouse) = assay: as above
# c-Abl (mouse) = assay: as above
# AncSZ = assay: as above
# Hck = Hck (UniProt P08631); assay: as above
# Fyn = Fyn (UniProt P06241); assay: as above
# EPHB2 = EPHB2 (UniProt P29323); assay: as above
# c-Src = assay: as above
# FGFR3 = FGFR3 (UniProt P22607); assay: as above
# Chain of FGFR3 (P22607 whole entry, looked up): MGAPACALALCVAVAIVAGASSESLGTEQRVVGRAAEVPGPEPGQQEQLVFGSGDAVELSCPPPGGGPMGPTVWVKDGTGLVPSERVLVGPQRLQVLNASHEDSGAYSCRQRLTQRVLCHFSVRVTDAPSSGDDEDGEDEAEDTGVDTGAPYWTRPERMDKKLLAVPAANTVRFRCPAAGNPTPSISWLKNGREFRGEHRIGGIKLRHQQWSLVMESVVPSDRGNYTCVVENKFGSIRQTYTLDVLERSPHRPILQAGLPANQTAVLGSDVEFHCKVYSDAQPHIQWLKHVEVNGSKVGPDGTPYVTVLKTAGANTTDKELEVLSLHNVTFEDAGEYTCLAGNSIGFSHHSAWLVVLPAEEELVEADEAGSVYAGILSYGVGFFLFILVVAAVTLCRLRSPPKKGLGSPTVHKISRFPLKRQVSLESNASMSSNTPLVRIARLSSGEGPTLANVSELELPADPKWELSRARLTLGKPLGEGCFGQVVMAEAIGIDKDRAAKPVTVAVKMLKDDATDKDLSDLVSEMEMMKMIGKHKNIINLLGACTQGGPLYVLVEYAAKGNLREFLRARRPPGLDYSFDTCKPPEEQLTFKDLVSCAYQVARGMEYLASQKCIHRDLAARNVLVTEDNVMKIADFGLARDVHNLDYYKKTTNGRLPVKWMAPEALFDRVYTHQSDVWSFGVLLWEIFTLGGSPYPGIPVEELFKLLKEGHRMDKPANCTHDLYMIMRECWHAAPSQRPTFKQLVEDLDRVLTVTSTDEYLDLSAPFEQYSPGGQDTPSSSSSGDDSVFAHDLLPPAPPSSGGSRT
# FGFR1 = FGFR1 (UniProt P11362); assay: as above
# Chain of FGFR1 (P11362 whole entry, looked up): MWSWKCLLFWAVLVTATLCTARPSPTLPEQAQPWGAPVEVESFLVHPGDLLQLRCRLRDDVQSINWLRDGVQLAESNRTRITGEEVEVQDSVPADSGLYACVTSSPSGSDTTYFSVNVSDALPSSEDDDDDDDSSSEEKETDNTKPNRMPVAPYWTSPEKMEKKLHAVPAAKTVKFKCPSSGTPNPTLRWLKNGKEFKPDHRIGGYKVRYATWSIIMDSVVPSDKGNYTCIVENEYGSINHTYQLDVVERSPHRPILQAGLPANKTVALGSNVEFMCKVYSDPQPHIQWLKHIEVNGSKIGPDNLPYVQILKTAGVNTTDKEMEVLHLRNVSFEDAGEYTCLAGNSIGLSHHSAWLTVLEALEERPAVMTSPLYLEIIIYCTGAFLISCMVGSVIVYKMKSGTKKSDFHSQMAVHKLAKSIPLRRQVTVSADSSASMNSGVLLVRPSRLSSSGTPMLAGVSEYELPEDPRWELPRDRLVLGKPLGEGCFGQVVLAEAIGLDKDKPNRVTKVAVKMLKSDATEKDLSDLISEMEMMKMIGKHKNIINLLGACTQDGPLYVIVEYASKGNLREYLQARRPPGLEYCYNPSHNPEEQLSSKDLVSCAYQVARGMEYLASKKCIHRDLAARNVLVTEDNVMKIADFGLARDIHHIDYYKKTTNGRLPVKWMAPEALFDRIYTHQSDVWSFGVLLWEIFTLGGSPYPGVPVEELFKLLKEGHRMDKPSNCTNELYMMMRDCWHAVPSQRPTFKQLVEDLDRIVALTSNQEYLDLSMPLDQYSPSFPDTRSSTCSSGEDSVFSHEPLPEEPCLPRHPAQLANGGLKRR
# EPHB1 = EPHB1 (UniProt P54762); assay: as above
# Chain of EPHB1 (P54762 whole entry, looked up): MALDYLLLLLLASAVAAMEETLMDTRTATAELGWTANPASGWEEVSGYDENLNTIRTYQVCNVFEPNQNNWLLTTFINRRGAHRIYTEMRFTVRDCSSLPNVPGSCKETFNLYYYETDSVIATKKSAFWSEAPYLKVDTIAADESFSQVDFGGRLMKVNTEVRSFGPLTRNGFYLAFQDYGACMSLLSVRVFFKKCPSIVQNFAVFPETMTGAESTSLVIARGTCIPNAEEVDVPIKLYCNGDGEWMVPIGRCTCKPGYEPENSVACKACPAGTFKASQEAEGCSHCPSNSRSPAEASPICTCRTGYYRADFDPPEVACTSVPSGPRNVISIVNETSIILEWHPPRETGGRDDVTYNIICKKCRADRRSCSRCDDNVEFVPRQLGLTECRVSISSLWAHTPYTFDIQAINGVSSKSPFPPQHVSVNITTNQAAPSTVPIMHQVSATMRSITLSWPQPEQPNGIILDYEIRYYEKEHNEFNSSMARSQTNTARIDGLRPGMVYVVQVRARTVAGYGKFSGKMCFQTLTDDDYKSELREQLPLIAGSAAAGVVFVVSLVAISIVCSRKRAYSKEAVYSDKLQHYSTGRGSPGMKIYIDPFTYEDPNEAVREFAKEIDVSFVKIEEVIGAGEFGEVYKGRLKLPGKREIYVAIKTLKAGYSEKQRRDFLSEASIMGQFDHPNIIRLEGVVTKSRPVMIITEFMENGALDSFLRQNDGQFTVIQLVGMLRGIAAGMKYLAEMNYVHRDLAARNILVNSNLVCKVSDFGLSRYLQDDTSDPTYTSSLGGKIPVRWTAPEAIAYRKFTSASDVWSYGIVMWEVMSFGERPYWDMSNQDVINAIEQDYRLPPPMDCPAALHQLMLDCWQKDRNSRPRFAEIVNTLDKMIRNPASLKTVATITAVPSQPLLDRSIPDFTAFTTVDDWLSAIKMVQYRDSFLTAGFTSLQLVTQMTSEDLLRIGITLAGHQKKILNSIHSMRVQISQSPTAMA
# Fes = Fes (UniProt P07332); assay: as above
# Chain of Fes (P07332 whole entry, looked up): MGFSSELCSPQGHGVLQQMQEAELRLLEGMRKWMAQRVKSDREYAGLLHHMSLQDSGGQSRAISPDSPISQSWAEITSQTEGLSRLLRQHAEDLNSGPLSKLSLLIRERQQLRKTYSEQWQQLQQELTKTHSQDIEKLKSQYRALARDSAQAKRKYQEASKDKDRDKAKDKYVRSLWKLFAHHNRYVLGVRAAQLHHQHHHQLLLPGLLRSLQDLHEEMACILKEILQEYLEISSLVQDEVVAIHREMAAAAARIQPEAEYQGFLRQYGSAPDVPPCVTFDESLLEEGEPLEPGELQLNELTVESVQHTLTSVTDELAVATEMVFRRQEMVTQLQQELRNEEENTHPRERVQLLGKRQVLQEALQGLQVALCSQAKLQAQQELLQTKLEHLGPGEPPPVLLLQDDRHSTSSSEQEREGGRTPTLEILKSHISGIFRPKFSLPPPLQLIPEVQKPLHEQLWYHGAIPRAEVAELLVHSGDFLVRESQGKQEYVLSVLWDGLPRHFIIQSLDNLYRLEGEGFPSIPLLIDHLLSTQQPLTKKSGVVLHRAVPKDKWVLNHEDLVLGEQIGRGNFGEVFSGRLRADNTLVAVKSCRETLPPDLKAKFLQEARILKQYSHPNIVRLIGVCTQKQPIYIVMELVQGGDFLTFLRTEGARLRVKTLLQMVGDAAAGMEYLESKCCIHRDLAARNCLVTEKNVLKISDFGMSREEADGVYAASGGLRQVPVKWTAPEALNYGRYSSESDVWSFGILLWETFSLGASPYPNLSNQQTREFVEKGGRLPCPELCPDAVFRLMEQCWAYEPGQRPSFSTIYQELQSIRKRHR
# Jak2 = Jak2 (UniProt O60674); assay: as above
# Grb2 SH2 = Grb2 SH2 (UniProt P62993); assay: SH2 binding enrichment of the phosphorylated peptide, bacterial display (enrichment ratio); higher = better substrate or ligand; peptides without Tyr show the background
# c-Src SH2 = assay: as above
# SHP2-C SH2 = assay: as above
# 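For SH2 binding enrichment of the phosphorylated peptide, bacterial display in this document: peptide library displayed on the E. coli surface as eCPX fusions, selected cells deep-sequenced, score is each peptide's frequency after selection divided by its frequency in the input.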
# 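For phosphorylation enrichment, bacterial display in this document: 11-residue human phosphosite peptides and single-mutation variants displayed on the E. coli surface, counted by deep sequencing, each peptide's frequency after selection divided by its frequency in the unselected input library; frequency after pTyr selection over input frequency; kinase dosed for 20-30% of maximal phosphorylation in three min.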
# Chain of MERTK (Q12866 whole entry, looked up): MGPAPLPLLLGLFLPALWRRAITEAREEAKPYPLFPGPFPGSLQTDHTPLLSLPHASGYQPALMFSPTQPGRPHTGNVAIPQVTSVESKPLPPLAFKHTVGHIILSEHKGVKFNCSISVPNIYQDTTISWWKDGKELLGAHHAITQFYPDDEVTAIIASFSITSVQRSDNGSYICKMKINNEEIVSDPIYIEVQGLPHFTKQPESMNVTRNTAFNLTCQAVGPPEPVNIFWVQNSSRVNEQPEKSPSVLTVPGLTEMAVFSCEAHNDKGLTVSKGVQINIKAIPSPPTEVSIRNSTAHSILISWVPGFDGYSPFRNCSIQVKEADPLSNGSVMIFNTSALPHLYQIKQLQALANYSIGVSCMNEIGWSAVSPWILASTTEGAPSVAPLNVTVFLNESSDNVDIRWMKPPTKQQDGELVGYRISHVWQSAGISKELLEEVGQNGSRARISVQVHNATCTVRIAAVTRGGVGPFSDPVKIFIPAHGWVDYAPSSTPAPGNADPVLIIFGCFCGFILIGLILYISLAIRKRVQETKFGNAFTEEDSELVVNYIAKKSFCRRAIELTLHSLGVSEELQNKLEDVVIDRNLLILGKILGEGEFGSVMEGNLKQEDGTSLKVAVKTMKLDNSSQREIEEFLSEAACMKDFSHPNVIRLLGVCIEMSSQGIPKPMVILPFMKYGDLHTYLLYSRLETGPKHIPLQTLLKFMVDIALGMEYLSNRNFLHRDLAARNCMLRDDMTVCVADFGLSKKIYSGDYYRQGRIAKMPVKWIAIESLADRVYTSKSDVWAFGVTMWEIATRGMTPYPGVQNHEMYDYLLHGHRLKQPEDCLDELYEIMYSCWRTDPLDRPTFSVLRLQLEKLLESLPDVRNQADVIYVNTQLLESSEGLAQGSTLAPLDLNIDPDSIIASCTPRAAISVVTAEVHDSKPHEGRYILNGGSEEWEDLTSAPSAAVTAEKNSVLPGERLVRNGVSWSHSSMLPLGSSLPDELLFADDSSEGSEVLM
# Chain of Hck (P08631 whole entry, looked up): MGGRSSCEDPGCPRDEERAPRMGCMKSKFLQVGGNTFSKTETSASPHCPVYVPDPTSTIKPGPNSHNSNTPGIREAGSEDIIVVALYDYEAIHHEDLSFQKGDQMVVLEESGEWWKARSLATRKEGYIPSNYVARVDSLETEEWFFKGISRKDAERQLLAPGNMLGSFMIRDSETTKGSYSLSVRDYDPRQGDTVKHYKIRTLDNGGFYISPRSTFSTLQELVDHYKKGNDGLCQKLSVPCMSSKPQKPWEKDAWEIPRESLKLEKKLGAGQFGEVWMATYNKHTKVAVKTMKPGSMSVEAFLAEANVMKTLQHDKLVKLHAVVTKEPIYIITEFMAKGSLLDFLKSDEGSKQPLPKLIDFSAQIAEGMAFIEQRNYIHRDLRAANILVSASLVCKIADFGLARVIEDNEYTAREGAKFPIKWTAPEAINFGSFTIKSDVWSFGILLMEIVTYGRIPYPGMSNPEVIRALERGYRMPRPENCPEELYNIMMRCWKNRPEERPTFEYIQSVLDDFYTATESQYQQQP
Sequence,SH2 binding enrichment (Grb2 SH2),SH2 binding enrichment (c-Src SH2),SH2 binding enrichment (SHP2-C SH2),phosphorylation enrichment (MERTK),phosphorylation enrichment (Fer (mouse)),phosphorylation enrichment (c-Abl (mouse)),phosphorylation enrichment (AncSZ),phosphorylation enrichment (Hck),phosphorylation enrichment (Fyn),phosphorylation enrichment (EPHB2),phosphorylation enrichment (c-Src),phosphorylation enrichment (FGFR3),phosphorylation enrichment (FGFR1),phosphorylation enrichment (EPHB1),phosphorylation enrichment (Fes),phosphorylation enrichment (Jak2)
QYKDKYLAKHN [CASK_Y712],0.648,1.02,0.798,0.283,0.349,0.458,0.401,0.207,0.436,0.402,0.308,0.663,0.526,0.501,0.927,0.605
RAEAQYLLVSN [LRIG1_Y1054],0.884,0.431,0.62,0.681,0.43,0.665,0.897,0.493,0.466,0.551,0.648,1.78,2.61,0.639,0.761,0.933
REGAKYVSHDA [ASS1_Y113_G117D],0.678,0.389,0.452,0.833,0.767,0.75,1.4,0.553,0.655,0.423,0.565,0.739,0.648,0.508,0.988,0.886
RGGWAYVLHPT [TRMT61A_Y67_V66A],0.905,0.437,0.654,0.52,0.611,0.93,1.34,0.509,0.505,0.816,0.671,0.698,0.663,0.711,1.51,1.1
RGLQVYHRRNA [LRP2_Y2010],0.674,0.486,0.604,1.2,0.803,0.957,1.41,0.783,0.964,0.86,1.49,0.889,1.1,0.755,1.05,1.2
RHPYFYAPELL [ALB_Y174],1.34,0.796,0.891,0.622,0.476,0.694,1.38,0.474,0.517,0.762,0.776,10.8,12.7,0.564,1.19,1.13
RIFDYYSARKT [STOX1_Y858_A863T],0.701,0.534,0.849,1.37,0.441,0.259,0.531,0.982,0.402,0.439,0.473,0.48,0.503,0.521,0.665,1.18
RKGGSYTQAAS [HLA-A_Y344],1.07,1.06,0.584,0.461,0.699,0.902,0.631,0.443,0.465,0.399,0.384,0.563,0.442,0.446,0.885,0.637
RKLASYRSCLL [DHX37_Y1080],1.04,0.861,1.04,0.356,0.768,0.627,0.75,0.468,0.515,0.492,0.486,0.617,0.581,0.321,0.811,0.633
RLAKTYETTLE [ALB_Y377],0.834,0.473,0.569,0.596,0.721,0.955,0.86,0.622,0.752,0.855,0.758,0.895,0.711,0.555,1.39,1.09
RLLRGHDQYAY [HLA-B_Y137],1.19,1.29,1.37,0.473,0.467,0.496,0.672,0.6,0.57,0.763,0.456,0.851,0.69,0.673,0.808,0.56
RLLVVYSWTQR [HBB_Y36_P37S],1.57,1.31,1.21,1.05,0.565,1,1.47,0.698,0.864,0.593,0.872,0.91,0.783,1.04,1.57,1.37
RLPNGYGLAFR [DLK1_Y262_S260N_YF],0.988,0.699,0.932,0.51,0.737,0.694,1.5,0.62,0.649,0.707,0.616,0.858,0.684,0.737,1.06,0.587
RLSELYLRRNP [CFAP410_Y68_R73P],0.633,0.352,0.303,0.377,0.249,0.555,0.813,0.631,0.407,0.477,0.317,0.533,0.381,0.372,0.83,0.659
RNFGTYTAGLS [RHBDD1_Y264_D262G_YF],0.631,0.437,0.684,0.302,0.798,0.445,0.702,0.657,0.441,0.477,0.517,1.07,0.483,0.377,0.495,0.315
RPDSPYSRLHD [DOK2_Y271_P274L],0.796,2.87,1.1,0.85,0.65,0.957,0.916,0.614,0.464,0.467,0.884,0.657,0.552,0.471,0.983,3.09
RREWYYEVIIA [BACE1_Y260_V265A],0.673,0.415,0.55,1.52,0.764,0.542,1.3,0.513,0.462,0.442,0.926,2.9,4.47,0.539,0.733,1.26

# Further lines, with some results ahead:
SH2 binding enrichment (Grb2 SH2),SH2 binding enrichment (c-Src SH2),SH2 binding enrichment (SHP2-C SH2),Sequence,phosphorylation enrichment (MERTK),phosphorylation enrichment (Fer (mouse)),phosphorylation enrichment (c-Abl (mouse)),phosphorylation enrichment (AncSZ),phosphorylation enrichment (Hck),phosphorylation enrichment (Fyn),phosphorylation enrichment (EPHB2),phosphorylation enrichment (c-Src),phosphorylation enrichment (FGFR3),phosphorylation enrichment (FGFR1),phosphorylation enrichment (EPHB1),phosphorylation enrichment (Fes),phosphorylation enrichment (Jak2)
0.716,0.411,0.554,RAMRRYLERGE [ERBB3_Y680],0.61,0.686,0.615,0.722,0.711,0.608,0.563,0.455,0.679,0.636,0.719,0.576,0.607
0.717,0.45,0.455,RDEHGYISRCF [HSPB1_Y133_Q128R],0.565,0.734,1.23,1.49,0.755,0.825,1.15,0.675,1.17,0.722,0.789,1.65,1.53
0.833,0.808,0.538,REIIAYQPYGK [PRKCG_Y529_P524R],0.294,0.357,0.467,0.83,0.563,0.625,0.617,0.405,0.415,0.329,0.429,0.721,0.531
1.1,0.628,0.556,RFLRGYRQDAY [HLA-A_Y137],1.2,0.483,0.922,1.15,0.764,0.647,0.432,1.14,0.664,0.677,0.43,0.827,0.927
1.03,0.388,0.581,RGKDSYETSKL [SPP1_Y225_Q229K],0.62,0.699,1.49,1.26,0.669,0.695,0.678,0.571,0.788,0.613,0.983,0.986,1.07
0.642,0.658,0.714,RGRSTCYWPRP [GAGE12J_Y9_Y9C],0.732,0.582,0.623,1.06,0.736,0.599,0.6,0.816,0.981,0.704,0.688,0.756,0.655
1.88,1.4,0.962,RHFVFYFSFLL [PTEN_Y177_R173H_YF],0.357,0.18,0.703,1.26,0.391,0.538,1.44,0.653,0.553,0.496,0.547,0.867,0.607
0.972,0.686,0.814,RKLVDYNSARH [BIN1_Y150_D151N],0.393,0.419,0.548,0.559,0.383,0.389,0.338,0.378,0.326,0.376,0.311,0.568,0.425
0.865,0.604,0.821,RLEKEYFDQHF [NPC1_Y394],0.631,0.5,0.795,1.13,0.665,0.341,0.707,0.571,0.959,1.39,0.717,1.29,1.44
0.599,0.483,0.746,RRGTRYMFSRP [RPL21_Y13],0.837,0.887,0.971,0.952,0.853,0.829,0.768,0.922,0.554,0.859,0.782,0.594,0.625
0.722,0.583,0.568,RRIHCYRGHLW [VHL_Y112_S111C],0.556,0.66,0.527,0.626,0.483,0.465,0.524,0.62,0.56,0.475,0.49,1.17,0.702
0.637,0.343,0.45,RRIHSYRGQLW [VHL_Y112_H115Q],0.535,0.617,0.906,1.25,0.664,0.883,0.438,0.776,0.596,0.536,0.491,0.813,0.925

# Reference: the supplement of paper PMC10065799, “High-throughput profiling of sequence recognition by tyrosine kinases and SH2 domains using bacterial peptide display” (eLife, 2023)
